# Results published in paper PMC4937415, “Peroxiredoxin 1 interacts with and blocks the redox factor APE1 from activating interleukin-8 expression” (Scientific Reports, 2016).
# Target: the molecule itself
# Assay: SEC; as a6, but HeLa cells treated with 20 μM E3330 for 4 h; fractions 23 to 28 probed with anti-PRDX1
protein,measurement,value
"Peroxiredoxin 1 (PRDX1) (natural protein, human (endogenous in HeLaS and HeLa), UniProt Q06830 1-199, looked up, endogenous PRDX1 of HeLaS and HeLa cells; monomer 22 kDa, dimeric form 44 kDa on blots; source: endogenous, HeLaS nuclear, cytosolic and total extracts; endogenous, HeLa nuclear extract) MSSGNAKIGHPAPNFKATAVMPDGQFKDISLSDYKGKYVVFFFYPLDFTFVCPTEIIAFSDRAEEFKKLNCQVIGASVDSHFCHLAWVNTPKKQGGLGPMNIPLVSDPKRTIAQDYGVLKADEGISFRGLFIIDDKGILRQITVNDLPVGRSVDETLRLVQAFQFTDKHGEVCPAGWKPGSDTIKPDVQKSKEYFSKQK",stoichiometry N,2
